From patent US20090162358A1 (GlaxoSmithKline, published 2009)
Numbering of substitutions follows the chain as printed. Ends that are not written are not given here. * marks the point of attachment. Biotin = O=C1N[C@H]2[C@H](CS[C@H]2CCCCC(=O)*)N1

T1: N-terminal coupled CGGGEDVGSNKGAIIGLMVGG (22-38) ovalbumin conjugate (coupled by the N-terminus to ovalbumin)
T1 peptide: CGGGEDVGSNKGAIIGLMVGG

T2: N-terminal biotinylated β-amyloid (24-34) peptide
T2 peptide: Biotin-VGSNKGAIIGL

T3: ovalbumin protein (UniProt P01012 2-386)
T3 sequence (looked up): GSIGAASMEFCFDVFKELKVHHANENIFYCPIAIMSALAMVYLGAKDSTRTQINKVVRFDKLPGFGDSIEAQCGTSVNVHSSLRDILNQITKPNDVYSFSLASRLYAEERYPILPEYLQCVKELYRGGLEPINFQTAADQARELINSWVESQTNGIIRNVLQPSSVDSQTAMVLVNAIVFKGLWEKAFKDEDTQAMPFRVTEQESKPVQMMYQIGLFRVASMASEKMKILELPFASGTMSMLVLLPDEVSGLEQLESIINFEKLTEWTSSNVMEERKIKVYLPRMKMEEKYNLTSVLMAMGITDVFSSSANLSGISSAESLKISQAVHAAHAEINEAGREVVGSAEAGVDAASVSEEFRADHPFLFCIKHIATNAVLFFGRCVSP

B1: humanised de-immunised construct H48L20 (antibody, human IgG1, V domains shown)
VH: QVQLVQSGAEVKEPGASVKVSCKGSGFNIHVYYVHWLRQLPEKGLEWIGRIDPENGETIYTPKFQDKATLTVDTSTDTAYMELSSLRSEDTAVYYCVSSGYWGQGTLVTVSS
VL: DIVMTQSPLSNPVTPGEPASISCRSSKSLLHRNGITYLYWYLQKPGQSPQLLIYQMDHLASGVPDRFSSSGSGTDFTLKISRVEAEDVGVYYCAQNLELWTFGQGTKVEIK
B2: humanised de-immunised construct H48L21 (antibody, human IgG1, V domains shown)
VH: B1 VH
VL: B1 VL with I35K, H58N
B3: humanised de-immunised construct H50L20 (antibody, human IgG1, V domains shown)
VH: B1 VH with K23T
VL: B1 VL
B4: humanised de-immunised construct H50L21 (antibody, human IgG1, V domains shown)
VH: B1 VH with K23T
VL: B1 VL with I35K, H58N
B5: humanised de-immunised construct H51L20 (antibody, human IgG1, V domains shown)
VH: B1 VH with V31T
VL: B1 VL
B6: humanised de-immunised construct H51L21 (antibody, human IgG1, V domains shown)
VH: B1 VH with V31T
VL: B1 VL with I35K, H58N
B7: 2C1 mouse monoclonal antibody (antibody, V domains shown)
VH: EVQLQQSGAELVKPGASVKLSCTGSGFNIKVYYVHWLKQLTEQGLEWIGRIDPENGETIYAPKFQDKATLTVDTSSNTAYLQLSSLTSEDTAVYYCVSSGYWGQGTTLTVSS
VL: B1 VL with P8A, L9F, P15L, E17T, P18S, D57S, H58N, S68T, Q104G, V108L
notes: Mouse hybridoma antibody
B8: 4D4 mouse monoclonal antibody (antibody, V domains shown)
VH: B7 VH with K13E, I59L, A61T, D66G, S84N, T107S
VL: B1 VL with P8A, L9F, P15L, E17T, P18S, D57S, H58N, S68T, Q104G, V108L
notes: Mouse hybridoma antibody
B9: 5D1 mouse monoclonal antibody (antibody, V domains shown)
VH: B7 VH with I59K, Q82H
VL: B1 VL with P8A, L9F, P15L, E17T, P18S, D57S, H58N, S68T, Q104G, V108L
notes: Mouse hybridoma antibody
B10: 14B3 mouse monoclonal antibody (antibody, V domains shown)
VH: B7 VH with K13E, I59L, A61T, D66G, L70F
VL: B1 VL with P8A, L9F, P15L, E17T, P18S, D57S, H58N, S68T, Q104G, V108L
notes: Mouse hybridoma antibody
B11: 16D4 mouse monoclonal antibody (antibody, V domains shown)
VH: B7 VH with G24A, V31D, V34M, I59Q, D66G, T69S, V72A, Q82H
VL: DIVMTQAAFSNPVTLGTSASISCRSSKSLLHSNGITYLYWYLQKPGQSPQLLIYQMSNLASGVPDRFSSSGSGTDFTLRISRVEAEDVGVYYCAQNLELWTFGGGTKLEIK
notes: Mouse hybridoma antibody
B12: 5C9 mouse monoclonal antibody (antibody, V domains shown)
VH: EVQLQQSGAEFVRPGASVKLSCTASGFNIKTYYIHWLKQRTDQGLEWIGRIDPEDGETKFGPKFRGKATLTADTSSNTASLQLSSLTSEDTGVYYCVTSGYWGQGTTLSVSS
VL: B11 VL
notes: Mouse hybridoma antibody
B13: 2E11 mouse monoclonal antibody (antibody, V domains shown)
VH: B7 VH with L11V, G24A, V34I, I59K, A61V, D66G, Q82H, A92G, S98T
VL: B11 VL with T14A
notes: Mouse hybridoma antibody
B14: straight graft light chain L0 in combination with H11 (antibody, V domains shown)
VH: B1 VH with H30K, E42G
VL: DIVMTQSPLSLPVTPGEPASISCRSSKSLLHRNGITYLYWYLQKPGQSPQLLIYQMSNLASGVPDRFSGSGSGTDFTLKISRVEAEDVGVYYCAQNLELWTFGQGTKVEIKR
notes: Kabat positions; after CDRL1 the count on the entry is Kabat + 5; also called H11L0
B15: humanised VL variant L14 in combination with H11 (antibody, V domains shown)
VH: B1 VH with H30K, E42G
VL: B14 VL with S48P, Q104G
notes: Kabat positions; after CDRL1 the count on the entry is Kabat + 5; also called H11L14
B16: humanised de-immunised construct H48L19 (antibody, human IgG1, V domains shown)
VH: B1 VH
VL: B1 VL with I35K
B17: humanised de-immunised construct H49L19 (antibody, human IgG1, V domains shown)
VH: B1 VH with H30K, V31T
VL: B1 VL with I35K
B18: humanised de-immunised construct H49L20 (antibody, human IgG1, V domains shown)
VH: B1 VH with H30K, V31T
VL: B1 VL
B19: humanised de-immunised construct H49L21 (antibody, human IgG1, V domains shown)
VH: B1 VH with H30K, V31T
VL: B1 VL with I35K, H58N
B20: humanised de-immunised construct H50L19 (antibody, human IgG1, V domains shown)
VH: B1 VH with K23T
VL: B1 VL with I35K
B21: humanised de-immunised construct H51L19 (antibody, human IgG1, V domains shown)
VH: B1 VH with V31T
VL: B1 VL with I35K

What follows are binders tested against T4, human β-amyloid 1-40 (human, UniProt P05067 672-711) (assay: SPR Biacore T100 at 37 C; antibody captured on anti-human IgG, Aβ 1-40 at 1-256 nM).
T4 construct: domain: β-amyloid (1-40); Used in solution over captured antibody (Biacore) or coated on ELISA plates; also called human Aβ peptide (1-40); Aβ peptide (1-40)
Protocol: (§1) Anti-human IgG (Biacore BR-1008-39) was coupled to a CM5 biosensor chip by primary amine coupling. The anti-beta amyloid antibodies were captured on this surface. Beta amyloid (1-40) was then passed over at 256, 64, 16, 4 and 1 nM, with a 0 nM (ie buffer alone passed over the captured antibody surface) used for double referencing. […] The data was analysed using the 1:1 model inherent to the T100. The run was carried out at 25° C. and 37° C. using HBS-EP as the running buffer.
From this panel some constructs were also assessed for binding kinetics at physiological temperature.

T4 sequence (P05067 672-711 limits assumed): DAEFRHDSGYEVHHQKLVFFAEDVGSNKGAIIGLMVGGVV

With B1 as the binder, how does the Kd read?
Its Kd is 3.54 nM.

For B2, which Kd is on record?
The Kd was 2.69 nM.

B3 was tested. Which Kd did it give?
The Kd was 3.5 nM.

How did the Kd turn out when B4 was run?
Its Kd is 2.7 nM.

How did the Kd turn out when B5 was run?
Its Kd is 3.89 nM.

How did the Kd turn out when B6 was run?
Its Kd is 2.9 nM.

Target: T1, N-terminal coupled …
Experiment: FMAT bead immunoassay, culture supernatant
Description: (§2) Each of the expressed antibodies contained in culture supernatant was then screened in an FMAT (Fluorescent Microvolume Assay Technology) homogenous immunoassay. 29 positive antibodies were identified from this screening cascade that were negative for ovalbumin protein passively absorbed to polystyrene beads but positive for: [0158] (i) N-terminal coupled […] (22-38) (SEQ ID No:73) ovalbumin conjugate bound to polystyrene beads, [0159] (ii) N-terminal biotinylated β-amyloid(1-40) peptide bound to streptavidin coated polystyrene beads, [0160] (iii) C-terminal biotinylated β-amyloid(1-40) peptide bound to streptavidin coated polystyrene beads and [0161] (iv) N-terminal biotinylated β-amyloid (24-34) peptide, residues 24-34 of β-amyloid being […] (SEQ ID No:8), bound to streptavidin coated polystyrene beads.

Does B7 bind?
Result: binds

Does B8 bind?
Result: binds

Does B9 bind?
Result: binds

Does B10 bind?
Result: binds

Does B11 bind?
Result: binds

Does B12 bind?
Result: binds

Does B13 bind?
Result: binds

Target: T2, N-terminal biotinylated β-amyloid …
Experiment: FMAT bead immunoassay, culture supernatant
Description: as §2

Does B7 bind?
Result: binds

Does B8 bind?
Result: binds

Does B9 bind?
Result: binds

Does B10 bind?
Result: binds

Does B11 bind?
Result: binds

Does B12 bind?
Result: binds

Does B13 bind?
Result: binds

These binders were tested against T3, ovalbumin protein (assay: FMAT bead immunoassay, culture supernatant).
Description: as §2

Does B7 bind?
Result: no binding

Does B8 bind?
Result: no binding

Does B9 bind?
Result: no binding

Does B10 bind?
Result: no binding

Does B11 bind?
Result: no binding

Does B12 bind?
Result: no binding

Does B13 bind?
Result: no binding

These binders were tested against T4, human β-amyloid 1-40 (assay: ELISA on human Aβ peptide (1-40), in combination with H11).

Does B14 bind?
Result: binds

Does B15 bind?
Result: binds

What follows are binders tested against T4, human β-amyloid 1-40 (assay: SPR Biacore T100; antibody captured on anti-human IgG, Aβ 1-40 at 1-256 nM; 1:1 model).
Protocol: as §1

With B16 as the binder, how does the Kd read?
The Kd was 3.15 nM.

B1 was tested. Which Kd did it give?
The Kd was 2.02 nM.

B2 was tested. Which Kd did it give?
Its Kd is 2.01 nM.

For B17, which Kd is on record?
The Kd was 3.09 nM.

With B18 as the binder, how does the Kd read?
The Kd was 2.23 nM.

B19 was tested. Which Kd did it give?
The Kd was 2.58 nM.

Which Kd does the source give for B20 here?
The Kd was 2.76 nM.

With B3 as the binder, how does the Kd read?
The Kd was 2.5 nM.

Which Kd does the source give for B4 here?
Its Kd is 2.17 nM.

For B21, which Kd is on record?
Its Kd is 2.65 nM.

For B5, which Kd is on record?
Its Kd is 2.23 nM.

B6 was tested. Which Kd did it give?
The Kd was 2.05 nM.

The binders below were run against T4, human β-amyloid 1-40 (assay: SPR Biacore 3000; mAb captured on anti-mouse IgG; triplicate run).
Protocol: (§3) Purified mouse antibody preparations were captured on a polyclonal anti-mouse IgG antibody chip surface. Freshly prepared human β-amyloid 1-40 was diluted down in HBS-EP buffer and passed over the captured antibody surface at concentrations ranging from 4-500 nM for 5 minutes. […] Regeneration was achieved via a pulse of 100 mM H₃PO₄. […] All runs were double referenced against a blank surface and blank buffer injections.

Which Kd does the source give for B9 here?
Its Kd is 2.05 nM.

And the koff?
The koff was 0.000135 s⁻¹.

And the kon?
The kon was 65800 M⁻¹ s⁻¹.

The binders below were run against T4, human β-amyloid 1-40 (assay: SPR Biacore 3000; mAb captured on anti-mouse IgG, Aβ 1-40 at 4-500 nM).
Protocol: as §3

Which Kd does the source give for B7 here?
The Kd was 1.95 nM.

And the koff?
The koff was 0.000129 s⁻¹.

What about the kon of the same binder?
The kon was 66300 M⁻¹ s⁻¹.

What does the source list for B8?
Kd: 1.13 nM; koff: 8.27e-05 s⁻¹; kon: 73200 M⁻¹ s⁻¹

With B9 as the binder, how does the Kd read?
The Kd was 2.57 nM.

What about the koff of the same binder?
The koff was 0.000147 s⁻¹.

And the kon?
Its kon is 57000 M⁻¹ s⁻¹.

How did the Kd turn out when B10 was run?
The Kd was 0.95 nM.

What about the koff of the same binder?
The koff was 7.11e-05 s⁻¹.

And the kon?
The kon was 74800 M⁻¹ s⁻¹.

What does the source list for B11?
Kd: 7.62 nM; koff: 0.000618 s⁻¹; kon: 81200 M⁻¹ s⁻¹

For B12, which Kd is on record?
The Kd was 2.69 nM.

What about the koff of the same binder?
The koff was 0.000164 s⁻¹.

And the kon?
The kon was 61100 M⁻¹ s⁻¹.

Which results are given for B13?
Kd: 2.01 nM; koff: 0.00017 s⁻¹; kon: 84500 M⁻¹ s⁻¹
